Test results as given in publication PMC3660568.

How the values were obtained:
[1] = molecular target: anti-HER2 IgG1 heavy chain (biosimilar Herceptin); assay: non-reducing SDS-PAGE with western blot; crude supernatant of stably transfected CHO DG44 pools at the end of culture, non-reducing conditions; detected with anti-human IgG Fc and anti-human kappa LC antibodies; species assigned by molecular weight
[2] = molecular target: anti-HER2 IgG1 light chain (biosimilar Herceptin); assay: as above

stoichiometry N [1]	stoichiometry N [2]	Substance
2		anti-HER2 IgG1 heavy chain (biosimilar Herceptin)
	2	anti-HER2 IgG1 light chain (biosimilar Herceptin)
